Laboratory results: US20240287172A1 (SCIRHOM, published 2024)
Numbering of substitutions follows the chain as printed.

B1: antibody 48 (antibody, V domains shown)
VH: QVQLQQSGTELVRPGTSVKVSCKASGYAFTNYLIEWVKQRPGQGLEWIGVINPGSGFTKYNEKFKGKATLTADKSSSTVYMHLSSLTSEDSAVYFCARGLYRAMDYWGQGTSVTVSS
VL: DIQMTQSPASQSASLGESVTITCLASQTIATWLAWYQQKPGKSPQLLIYGATTLADGVPSRFSGGGSGTKFSFKISSLQAEDFVSYYCQQLYSTPYTFGGGTKLEIK
notes: mouse IgG, kappa light chain; also called clone #48; purified antibody 48
B2: antibody 50 (antibody, V domains shown)
VH: B1 VH with T9A, T16A, T30S, V79A, H82Q
VL: B1 VL with A30G, G50A, T52A, T53S, S85N, L91I
notes: mouse IgG, kappa light chain; also called clone #50; purified antibody 50

What was measured:
hiR2-FL-H590A-T7 = target: T1, hiR2-FL-H590A-T7 (human, UniProt Q6PJF5 1-856); assay: FACS on MEF-DKO cells expressing the variant, 3 µg/ml antibody
T1 sequence: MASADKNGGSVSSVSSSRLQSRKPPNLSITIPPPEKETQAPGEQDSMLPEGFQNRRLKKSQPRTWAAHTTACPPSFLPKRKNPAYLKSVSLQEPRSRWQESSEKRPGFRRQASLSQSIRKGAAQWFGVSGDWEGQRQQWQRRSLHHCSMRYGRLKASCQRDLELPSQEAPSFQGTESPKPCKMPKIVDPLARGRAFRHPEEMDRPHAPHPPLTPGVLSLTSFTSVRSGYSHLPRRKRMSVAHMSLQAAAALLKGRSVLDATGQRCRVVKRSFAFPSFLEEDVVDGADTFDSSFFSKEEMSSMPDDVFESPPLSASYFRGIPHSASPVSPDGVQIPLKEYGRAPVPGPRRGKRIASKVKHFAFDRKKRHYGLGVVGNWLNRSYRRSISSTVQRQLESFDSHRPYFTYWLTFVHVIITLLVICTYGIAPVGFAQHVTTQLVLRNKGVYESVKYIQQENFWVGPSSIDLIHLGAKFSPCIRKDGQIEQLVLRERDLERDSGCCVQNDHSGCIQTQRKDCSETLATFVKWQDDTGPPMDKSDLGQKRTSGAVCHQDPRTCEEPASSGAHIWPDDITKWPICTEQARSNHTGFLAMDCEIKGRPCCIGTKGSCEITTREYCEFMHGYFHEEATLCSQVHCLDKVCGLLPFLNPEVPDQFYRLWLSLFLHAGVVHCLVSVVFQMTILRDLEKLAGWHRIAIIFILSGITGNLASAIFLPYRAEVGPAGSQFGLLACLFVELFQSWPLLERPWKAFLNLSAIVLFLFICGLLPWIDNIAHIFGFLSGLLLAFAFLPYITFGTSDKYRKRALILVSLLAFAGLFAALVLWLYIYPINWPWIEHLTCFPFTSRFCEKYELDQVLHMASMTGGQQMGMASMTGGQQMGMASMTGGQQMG
How it was run: (§1)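 Pelleted cells are resuspended in antibody at 3 μg/ml and kept on ice 1 hour, washed, then incubated with PE goat anti-mouse IgG F(ab′)2 diluted 1:100 on ice for 1 hour protected from light, washed again and analysed by flow cytometry.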

hiR2-FL-V524A-T7 = target: T2, hiR2-FL-V524A-T7 (human, UniProt Q6PJF5 1-856); assay: as above
T2 sequence: T1 sequence with V524A, A590H
How it was run: as §1

Row | Binder | loss of binding vs wild type (hiR2-FL-H590A-T7) [%] | loss of binding vs wild type (hiR2-FL-V524A-T7) [%]
1 | B1 | ≥ 30 | –
2 | B2 | – | ≥ 30
